Test results: US20200317768A1 (published 2020)
Changes are numbered by the printed parent chain. Numbers in names are those of the source.

How the values were obtained:
Assay in all cases: SPR (BIACORE), antibody captured, FcγR analyte
[1] = molecular target: T1, cynomolgus monkey FcγRIIa2 extracellular domain, C-terminal His-tag (cynomolgus monkey)
T1 construct: also called cyno FcγRIIa2; cynoFcgRIIa2; not shown: His-tag added to C-terminus
T1 chain: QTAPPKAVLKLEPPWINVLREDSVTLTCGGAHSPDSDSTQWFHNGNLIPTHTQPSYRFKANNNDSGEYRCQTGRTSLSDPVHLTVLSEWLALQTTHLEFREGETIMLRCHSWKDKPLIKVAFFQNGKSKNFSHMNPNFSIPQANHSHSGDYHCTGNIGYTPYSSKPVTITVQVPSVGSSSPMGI

[2] = molecular target: T2, human FcγRIIIaV extracellular domain, C-terminal His-tag (human, UniProt P08637 17-208)
T2 construct: also called FcgRIIIaV; not shown: His-tag added to C-terminus

[3] = molecular target: T3, cynomolgus monkey FcγRIIa3 extracellular domain, C-terminal His-tag (cynomolgus monkey)
T3 construct: also called cyno FcγRIIa3; cynoFcgRIIa3; not shown: His-tag added to C-terminus
T3 chain: T1 chain with K127I, N130K, H133P, Q142R

[4] = molecular target: T4, cynomolgus monkey FcγRIIb extracellular domain, C-terminal His-tag (cynomolgus monkey)
T4 construct: also called cyno FcγRIIb; cynoFcγRIIb; not shown: His-tag added to C-terminus
T4 chain: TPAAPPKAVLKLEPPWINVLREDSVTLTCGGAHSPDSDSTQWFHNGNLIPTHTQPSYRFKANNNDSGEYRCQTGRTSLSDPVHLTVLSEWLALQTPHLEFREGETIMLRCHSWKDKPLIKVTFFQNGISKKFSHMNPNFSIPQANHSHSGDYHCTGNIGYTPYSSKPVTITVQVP

T2 sequence (P08637 17-208 F176V): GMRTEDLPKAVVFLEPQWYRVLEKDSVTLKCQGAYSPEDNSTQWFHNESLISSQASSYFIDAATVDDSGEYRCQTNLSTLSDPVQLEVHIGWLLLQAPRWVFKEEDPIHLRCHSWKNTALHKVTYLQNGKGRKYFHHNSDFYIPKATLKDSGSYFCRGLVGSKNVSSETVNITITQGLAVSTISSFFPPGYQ

Kd [1]: 1300 nM
Kd [2]: 13000 nM
Kd [3]: 3800 nM
Kd [4]: 380 nM
B1: M103205H795-PK2 / M103202L889-SK1 (antibody, human IgG1, kappa)
heavy: QVTLKESGPVLVKPTETLTLTCTVSGIDLSHDDISWVRQAPGKGLEWVGIISYAGSTYYASWAKGRLTISKDTSKNQVVLTMTNMDPVDTATYYCARGVPAYSHGGDLWGQGTLVTVSSASTKGPSVFPLAPSSKSTSGGTAALGCLVKDYFPEPVTVSWNSGALTSGVHTFPAVLQSSGLYSLSSVVTVPSSSLGTQTYICNVNHKPSNTKVDKKVEPKSCDKTHTCPPCPAPELLNGPSVFLFPPKPKDTLMISRTPEVTCVVVDVSEEDPEVKFNWYVDGVEVHNAKTKPREEQYNSTYRVVSVLTVLHQDWLNGKEYKCKVSNKALPKPIEKTISKAKGQPREPQVYTLPPSREEMTKNQVSLTCLVKGFYPSDIAVEWESNGQPENNYKTTPMVLDRDGSFFLYSKLTVKKSRWQQGNVFSCSVMHEALHNHYTQKSLSLSP
light: DIVMTQSPATLSLSPGERATLSCTSSQSVYHANWLSWFQQKPGQPPKLLIYWASTLAYGVPSRFSGSGSGTDFTLTISSLQPEDAATYYCAGGYGGGRYAFGQGTKVEIKRTVAAPSVFIFPPSDEQLKSGTASVVCLLNNFYPREAKVQWKVDNALQSGNSQESVTEQDSKDSTYSLSSTLTLSKADYEKHKVYACEVTHQGLSSPVTKSFNRGEC
notes: CH with G236N/H268E/A330K/P396M/S400R/D413K against SG1 (EU numbering); also called MS1032LO06-PK2; MS103205H795-PK2
